Consider eight molecules from patent publication US20190338038A1 (CELLERANT THERAPEUTICS, published 2019).

Assay [1] has as its target human interleukin 1 receptor accessory protein, membrane-bound form on cells (human) (UniProt Q9NPH3). Nature of the assay: flow cytometry on primary AML sample 13-AML-02 PB, antibody at 2 ug/mL per paragraph 390. On the technique in general: Flow cytometry measures light scatter and fluorescence of single cells or particles in a stream.
Assay [2] concerns the target T1, recombinant mouse IL1-RAP (mouse, UniProt Q61730 21-359, limits assumed).
T1 sequence (looked up): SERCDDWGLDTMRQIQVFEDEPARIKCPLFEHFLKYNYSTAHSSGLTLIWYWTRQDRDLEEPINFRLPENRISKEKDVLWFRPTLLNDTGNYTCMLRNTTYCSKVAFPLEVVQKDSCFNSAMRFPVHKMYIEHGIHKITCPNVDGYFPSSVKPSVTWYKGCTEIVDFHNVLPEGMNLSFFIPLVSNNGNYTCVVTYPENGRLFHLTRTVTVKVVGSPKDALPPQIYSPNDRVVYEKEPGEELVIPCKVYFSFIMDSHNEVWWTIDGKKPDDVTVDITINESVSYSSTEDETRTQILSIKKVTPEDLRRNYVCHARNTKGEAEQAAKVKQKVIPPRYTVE
Put plainly: FACS (GeoMean), bar series mIL1RAP.

In assay [3] the target is T2, human interleukin 1 receptor accessory protein, membrane-bound form on cells (human, UniProt Q9NPH3 21-570).
T2 construct: On IL1-RAP-transfected 293 cells, AML cell lines (EOL-1, HNT-34, OCI-AML2, OCI-AML3), primary AML cells and HEK-Blue IL-1β cells; also called IL1-RAP; receptor IL1-RAP
T2 sequence: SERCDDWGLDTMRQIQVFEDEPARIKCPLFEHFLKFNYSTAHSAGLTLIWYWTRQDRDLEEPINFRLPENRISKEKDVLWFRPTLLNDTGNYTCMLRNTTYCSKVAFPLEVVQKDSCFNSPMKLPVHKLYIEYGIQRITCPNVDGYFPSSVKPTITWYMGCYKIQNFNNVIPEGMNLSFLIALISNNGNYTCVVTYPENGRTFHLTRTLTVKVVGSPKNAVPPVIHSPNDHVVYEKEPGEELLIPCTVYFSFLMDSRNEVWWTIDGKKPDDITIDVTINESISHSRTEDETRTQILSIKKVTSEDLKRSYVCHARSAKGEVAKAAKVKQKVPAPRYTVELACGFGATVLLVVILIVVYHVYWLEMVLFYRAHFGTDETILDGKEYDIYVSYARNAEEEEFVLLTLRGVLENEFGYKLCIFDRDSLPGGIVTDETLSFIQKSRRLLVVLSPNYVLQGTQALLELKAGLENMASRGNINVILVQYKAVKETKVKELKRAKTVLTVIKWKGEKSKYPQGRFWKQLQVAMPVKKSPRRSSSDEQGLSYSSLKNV
Nature of the assay: FACS titration on IL1-RAP transfected 293 cells.

Assay [4] addresses T2, human interleukin 1 receptor accessory …. Put plainly: FACS titration on EOL-1 cells.
Assay [5] has the same target. Nature of the assay: FACS titration on HNT-34 cells.
Assay [6] has the same target. Put plainly: FACS titration on HNT-34 cells in PBS, no competitor.
For assay [7] the target is unchanged. Nature of the assay: cell-based or functional assay.
Assay [8] has the same target. Put plainly: cell-based or functional assay. This is another data set of the same source.
Assay [9] shares this target. Nature of the assay: FACS on EOL-1 cells, FITC; antibody concentration not given.
Assay [10] addresses T3, IL1-RAP (antigen of the kinetic measurements of Tables 5A and 5B) (human, UniProt Q9NPH3 21-359, limits assumed).
T3 sequence: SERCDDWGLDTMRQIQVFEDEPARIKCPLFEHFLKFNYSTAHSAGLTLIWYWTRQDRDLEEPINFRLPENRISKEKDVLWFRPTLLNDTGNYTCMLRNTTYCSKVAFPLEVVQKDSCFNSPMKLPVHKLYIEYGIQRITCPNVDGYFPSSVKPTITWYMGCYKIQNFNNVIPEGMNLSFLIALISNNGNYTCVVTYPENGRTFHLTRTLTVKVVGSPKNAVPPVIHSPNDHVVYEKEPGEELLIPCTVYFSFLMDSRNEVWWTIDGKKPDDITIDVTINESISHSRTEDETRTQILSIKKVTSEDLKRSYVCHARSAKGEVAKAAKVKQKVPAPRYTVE
Put plainly: kinetics, Table 5B; method and antigen form not stated.

In assay [11] the target is T3, IL1-RAP (antigen of the kinetic …). Put plainly: kinetics, Table 5A; method and antigen form not stated.

Where two headings read alike, the source gives them in different places.

As to mIgG (antibody), the % of cells in the upper right quadrant (CD34 APC high, stain positive) in assay [1] worked out at 1.57%.

B1: anti-IL1-RAP antibody clone 56.12G6 (antibody, V domains shown)
VH: RSNYSSLGAELVKPGASVTLSCEASGYTFTSYWIHWVKQRPGQGLEWIGEINPSHGHTTYNEKFKNKATLTVDKSSSTAYMQVSSLTSEDSAVYYCTRHYGSYYFDLWGQGTTLTVSS
VL: QIVLTQSPAIMSAFPGEKVTMTCRASSSVSYMHWYRQKSGTFPKRWIYDTSKLASGVPARFSGSGSGTSYSLTISSMEAEDAATYYCQQWSTNPITFGAGTKLELK
notes: Mouse monoclonal antibody
B1: the binding result in assay [2] is “no binding (tested: not given)”. In addition, the concentration for a half-maximal effect (EC50 (read off the curve)) in [3] was approximately 0.4 µg/mL; in [4], approximately 0.6 µg/mL; in assay [5] it was approximately 0.2 µg/mL; in [6], approximately 0.9 µg/mL.

B2: anti-IL1-RAP antibody clone 54.9D7 (antibody, V domains shown)
VH: HVQLQQSGPELVRPGASVKLSCKASGYIFITYWMNWVKQRPGQGLEWVGQIFPASGTTYYNELFEGKATLTVDTSSNTAYMHLTSLTSEDSAVYYCARTDFYRYDGGYALDYWGQGTSLTVSS
VL: DIVLTQSPISLAVFLGQRATISCRASQSVSTSGYSSMHWYQQKAGQPPKLLIKYASDLESGVPVRFSGSGSGTDFILNIHPVEVEDIATYYCHHSWGIPMYTFGGGTKLEIKR
notes: Mouse monoclonal antibody from a hybridoma
For B2, the binding result in assay [2] is recorded as “no binding (tested: not given)”. For the same molecule, the “IC50 of inhibition of IL-1β-induced NF-κB signaling, HEK-Blue IL-1β cells” value in assay [7] stood at 0.0323 µg/mL; in assay [8], 0.03 µg/mL. Further, in assay [8], the “% Inhibition at 10 ug/mL of IL-1β-induced NF-κB signaling, HEK-Blue IL-1β cells” value amounted to 92.3%.

B3: Chi54.9D7 HC#1 / h54.9D7 LC3 (antibody, V domains shown)
VH: HVQLQQSGPELVRPGASVKLSCKASGYIFITYWMNWVKQRPGQGLEWVGQIFPASGTTYYNELFEGKATLTVDTSSNTAYMHLTSLTSEDSAVYYCARTDFYRYDGGYALDYWGQGTSLTVSS
VL: DIQLTQSPSSLSASVGDRATITCRASQSVSTSGYSSMHWYQQKPGKAPKLLIKYASDLESGVPSRFSGSGSGTDFTLTISSVQPEDFATYYCHHSWGIPMYTFGQGTKLEIKR
notes: also called chimeric 54.9D7 heavy chain with humanized LC3
On to B3, for which the MFI in assay [9] was found to be 121.

B4: h54.9D7 HC3 / Chi54.9D7 LC#1 (antibody, V domains shown)
VH: QVQLVQSGAEVKKPGASVKLSCKASGYIFITYWMNWVRQAPGQGLEWVGQIFPASGTTYYAQKFQGRATLTVDTSTSTAYMELSSLRSEDTAVYYCARTDFYRYDGGYALDYWGQGTLLTVSS
VL: DIVLTQSPISLAVFLGQRATISCRASQSVSTSGYSSMHWYQQKAGQPPKLLIKYASDLESGVPVRFSGSGSGTDFILNIHPVEVEDIATYYCHHSWGIPMYTFGGGTKLEIKR
notes: also called humanized 54.9D7 HC3 with the chimeric light chain
B4 gave an MFI in assay [9] of 20.

B5: humanized clone of 54.9D7 hH2L3 (antibody, V domains shown)
VH: QVQLVQSGAEVKKPGASVKVSCKASGYIFITYWMNWVRQAPGQGLEWVGQIFPASGTTYYAQKFQGRVTMTVDTSTSTVYMELSSLRSEDTAVYYCARTDFYRYDGGYALDYWGQGTLVTVSS
VL: DIQLTQSPSSLSASVGDRATITCRASQSVSTSGYSSMHWYQQKPGKAPKLLIKYASDLESGVPSRFSGSGSGTDFTLTISSVQPEDFATYYCHHSWGIPMYTFGQGTKLEIKR
notes: Humanized; also called 54.9D7 H2L3
In assay [10], B5 had a dissociation constant (Kd) of less than 1 pM, an off-rate (koff) of less than 1e-07 s⁻¹ and an on-rate constant (kon) of 169000 M⁻¹ s⁻¹. In assay [9], this molecule showed an MFI of 124. For the same molecule, in assay [11], the Kd is less than 1 pM, the koff was less than 1e-07 s⁻¹ and the kon was found to be 141000 M⁻¹ s⁻¹.

B6: humanized clone of 54.9D7 hH1L3 (antibody, V domains shown)
VH: QVQLVQSGAEVKKPGASVKVSCKASGYIFITYWMNWVRQAPGQGLEWMGQIFPASGTTYYAQKFQGRVTMTRDTSTSTVYMELSSLRSEDTAVYYCARTDFYRYDGGYALDYWGQGTLVTVSS
VL: DIQLTQSPSSLSASVGDRATITCRASQSVSTSGYSSMHWYQQKPGKAPKLLIKYASDLESGVPSRFSGSGSGTDFTLTISSVQPEDFATYYCHHSWGIPMYTFGQGTKLEIKR
notes: Humanized; also called 54.9D7 H1L3
In [10], B6 registered a dissociation constant Kd of 229 pM, an off-rate (koff) of 3.75e-05 s⁻¹ and an on-rate constant (kon) of 164000 M⁻¹ s⁻¹. For the same molecule, the MFI in [9] came out at 100. In [11], the Kd turned out to be 556 pM, the off-rate constant (koff) was determined as 7.57e-05 s⁻¹ and the kon came out at 136000 M⁻¹ s⁻¹.

B7: humanized clone of 54.9D7 hH3L3 (antibody, V domains shown)
VH: QVQLVQSGAEVKKPGASVKLSCKASGYIFITYWMNWVRQAPGQGLEWVGQIFPASGTTYYAQKFQGRATLTVDTSTSTAYMELSSLRSEDTAVYYCARTDFYRYDGGYALDYWGQGTLLTVSS
VL: DIQLTQSPSSLSASVGDRATITCRASQSVSTSGYSSMHWYQQKPGKAPKLLIKYASDLESGVPSRFSGSGSGTDFTLTISSVQPEDFATYYCHHSWGIPMYTFGQGTKLEIKR
notes: Humanized; also called 54.9D7 H3L3
For B7, in assay [10], the Kd was less than 1 pM, the koff was less than 1e-07 s⁻¹ and the kon is 193000 M⁻¹ s⁻¹. Also, the MFI in assay [9] came out at 94.3. In [11], the dissociation constant Kd is less than 1 pM, the koff is less than 1e-07 s⁻¹ and the on-rate constant (kon) worked out at 177000 M⁻¹ s⁻¹.

Usually EC50 (read off the curve) stands for the concentration at which the effect is half-maximal. A high value points to a less potent agent. As usually defined, the % Inhibition is the share of the control response that was lost under treatment. A lower % Inhibition goes with little suppression. Broadly, the Kd is the concentration at which binding is half-saturated. One may read the koff as the first-order rate constant of dissociation. High values mean fast dissociation, low ones slow dissociation. A word on the kon: it is a measure of how fast the partners come together. A high value points to fast association.
